Source: article doi:10.1101/2022.06.29.498065v2

Tested on: Nc1ncnc2c1ncn2[C@@H]1O[C@H](COP(=O)(O)OP(=O)(O)OP(=O)(O)O)[C@@H](O)[C@H]1O
Assay: purified protein
Settings: pH 7.0; 30.0 °C

With “KFDV NS5 (Kyasanur Forest disease virus)” the Km was 42.15 ± 5.81 µM.
